Test results published in US20060074081A1 (Pfizer, published 2006).

Molecular target: the molecule itself
Test: size-exclusion chromatography of the PR-LBD/tanaproget complex

B1: Human progesterone receptor ligand binding domain (PR-LBD), polypeptide following thrombin cleavage of the GST fusion (receptor)
chain: GSPGQDIQLIPPLINLLMSIEPDVIYAGHDNTKPDTSSSLLTSLNQLGERQLLSVVKWSKSLPGFRNLHIDDQITLIQYSWMSLMVFGLGWRSYKHVSGQMLYFAPDLILNEQRMKESSFYSLCLTMWQIPQEFVKLQVSQEEFLCMKVLLLLNTIPLEGLRSQTQFEEMRSSYIRELIKAIGLRQKGVVSSSQRFYQLTKLLDNLHDLVKQLHLYCLNTFIQSRALSVEFPEMMSEVIAAQLPKILAGMVKPLLFHKK
notes: In the size-exclusion run and in the crystal each chain carried the small molecule tanaproget; also called human PR-LBD; PR-LBD (675-933)
  binding result: binds
